Assay results published in patent US20080227085A1, “Methods and Systems for the Identification of Rna Regulatory Sequences and Compounds that Modulate their Function” (priority 2003, published 2008).

Tested on: general translation (reporter mRNA encoding firefly luciferase)
Test: Inhibition of reporter mRNA translation by HCV-IRES RNA fragments in in vitro translation system (RRL, firefly luciferase)
Assay type: biochemical, rabbit
Details: RNA fragments preincubated with in vitro translation system before Fy Luc reporter mRNA; FIG. 3
Protocol: FIG. 3. […] An in vitro translation system was preincubated with the RNA fragments before addition of the reporter mRNA construct encoding firefly luciferase (Fy Luc). The inhibitory effects of each of the fragments on general translation were determined by monitoring luciferase activity upon addition of substrate. […] Domain I not analyzed due to lack of any predicted secondary structure.
The plasmid pGEM3-HCV2b-IRES contains sequence coding for nucleotides 18 to 356 (SEQ ID NO: 1) of HCV-IRES RNA (genotype 2b) inserted at the BamHI restriction endonuclease site of the cloning vector pGEM-3 (Promega Corp., Madison, Wis.; FIG. 2A). RNA secondary structure prediction algorithms, as well as biochemical and genetic data, support a representation of this sequence as shown in FIG. 2B. […]
Translation reactions were performed in vitro to determine the inhibitory effect of HCV IRESIII RNA and fragments thereof and contained (20 μl): 4 μl pre-treated RRL, 4 μl 5× Reaction Buffer A, 5 μl of HCV IRES RNA (1 μM in 20% B), 5 μl mRNA ([…]), and 2 μl 10% DMSO. […] Translation reaction was stopped and Luciferase activity was measured using ViewLux™ (Perkin-Elmer Scientific Instruments, Boston, Mass.; detector set at 10 sec measurement and 6× binning; FIG. 3) upon the addition of 50 μl LucLite-Plus™ luciferase assay reagent (Promega Corp., Madison, Wis.). […]

B1: domain III: domain III RNA fragment of the HCV-IRES UTR (SEQ ID NO: 26), minimal RNA element required for efficient translation inhibition (nucleic acid)
chain: GGCCCCCCCCUCCCGGGAGAGCCAUAGUGGUCUGCGGAACCGGUGAGUACACCGGAAUUACCGGAAAGACUGGGUCCUUUCUUGGAUAAACCCACUCUAUGUCCGGUCAUUUGGGCGUGCCCCCGCAAGACUGCUAGCCGAGUAGCGUUGGGUUGCGAAAGGCCUUGUGGUACUGCCUGAUAGGGUGCUUGCGAGUGCCCCGGGAGGUCUCGUA
modifications: Hepatitis C virus; domain III of HCV-UTR RNA
For B1, the “inhibition of translation of the reporter (luciferase activity)” value was “majority of inhibitory activity resides in domain III”.
